Results: the supplement of paper PMC10567573

B1: RTN1 (parent)
chain: VVAYLALAALSATISFRIYKSVLQ

Variants of: B1
Assay: protein stability index of a GFP-peptide fusion (GPS, HEK-293T) (PSI 1-6); higher = more stable
Conditions: c terminus: a fixed tail appended
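Further: lentivirally expressed fusions sorted by FACS into six bins by GFP to DsRed ratio, PSI derived from sequencing read proportions per bin multiplied by bin number.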

Variant | protein stability index
VVAYLALAALSATISLRIYKSVLQ | 2.57
VVAYLALAALSATISARIYKSVLQ | 2.88
VVAYLALAALSATISPRIYKSVLQ | 4.4
VVAYLALAALSATISFIIYKSVLQ | 2.21
VVAYLALAALSATISFYIYKSVLQ | 3.59
VVAYLALAALSATISFKIYKSVLQ | 2.03
VVAYLALAALSATISFDIYKSVLQ | 2.83
VVAYLALAALSATISFNIYKSVLQ | 4.14
VVAYLALAALSATISFMIYKSVLQ | 2.83
VVAYLALAALSATISFFIYKSVLQ | 1.94
VVAYLALAALSATISFPIYKSVLQ | 2.35
VVAYLALAALSATISFHIYKSVLQ | 2.7
VVAYLALAALGATISFRIYKSVLQ | 2.02
VVAYLALAALMATISFRIYKSVLQ | 2.45
VVAYLALAALCATISFRIYKSVLQ | 1.28
VVAYLALAALYATISFRIYKSVLQ | 2.33
VVAYLALAALTATISFRIYKSVLQ | 2.81
VVAYLALAALFATISFRIYKSVLQ | 2.3
VVAYLALAALPATISFRIYKSVLQ | 2.49
VVAYLALAALWATISFRIYKSVLQ | 2.55
VVAYLALAALAATISFRIYKSVLQ | 3.26
VVAYLALAALHATISFRIYKSVLQ | 2.33
VVAYLALAALNATISFRIYKSVLQ | 3.04
VVAYLALAALDATISFRIYKSVLQ | 3.61

Variant | protein stability index
VVAYLALAALVATISFRIYKSVLQ | 1.41
VVAYLALAALRATISFRIYKSVLQ | 2.44
VVAYLALAALKATISFRIYKSVLQ | 2.4
VVAYLALAALSATISFRIYASVLQ | 3.28
VVAYLALAALSATISFRIYESVLQ | 5.17
VVAYLALAALSATISFRIYMSVLQ | 3.61
VVAYLALAALSATISFRIYNSVLQ | 2.27
VVAYLALAALSATISFRIYHSVLQ | 3.98
VVAYLALAALSATISFRIYGSVLQ | 3.57
VVAYLALAALSATISFRIYTSVLQ | 3.84
VVAYLALAALSATISFRIYRSVLQ | 4.17
VVAYLALAALSATISFRIYWSVLQ | 2.77
VVAYLALAALSATISFRIYPSVLQ | 2.58
VVAYLALAALSATISFRIYDSVLQ | 2.89
VVAYLALAALSATISFRIYSSVLQ | 2.68
VVAYLALAALSATIAFRIYKSVLQ | 1.01
VVAYLALAALSATIPFRIYKSVLQ | 2.71
VVAYLALAALSATIMFRIYKSVLQ | 1.21
VVAYLALAALSATIGFRIYKSVLQ | 2.29
VVAYLALAALSATIFFRIYKSVLQ | 1.27
VVAYLALAALSATIQFRIYKSVLQ | 2.82
VVAYLALAALSATITFRIYKSVLQ | 2.56
VVAYLALAALSATIVFRIYKSVLQ | 4.48
VVAYLALAALSATIIFRIYKSVLQ | 1.84

Variant | protein stability index
VVAYLALAALSATIHFRIYKSVLQ | 3.38
VVAYLALAALSATICFRIYKSVLQ | 2.23
VVAYLALADLSATISFRIYKSVLQ | 2.48
VVAYLALAELSATISFRIYKSVLQ | 2.85
VVAYLALAYLSATISFRIYKSVLQ | 3.25
VVAYLALAGLSATISFRIYKSVLQ | 1.53
VVAYLALANLSATISFRIYKSVLQ | 3.05
VVAYLALAFLSATISFRIYKSVLQ | 2.86
VVAYLALAPLSATISFRIYKSVLQ | 3.77
VVAYLALAKLSATISFRIYKSVLQ | 2.25
VVAYLALASLSATISFRIYKSVLQ | 2.41
VVAYLALACLSATISFRIYKSVLQ | 2.86
VVAYLALAVLSATISFRIYKSVLQ | 2.94
VVAYLALATLSATISFRIYKSVLQ | 2.52
VVAYLALALLSATISFRIYKSVLQ | 2.44
VVAYLALAWLSATISFRIYKSVLQ | 1.94
VVAYLALAMLSATISFRIYKSVLQ | 1.46
VVAYLALAILSATISFRIYKSVLQ | 2.31
VVAYLALAALSATISFRIYKMVLQ | 2.42
VVAYLALAALSATISFRIYKHVLQ | 1.9
VVAYLALAALSATISFRIYKVVLQ | 4.53
VVAYLALAALSATISFRIYKRVLQ | 1.99
VVAYLALAALSATISFRIYKTVLQ | 3.04
VVAYLALAALSATISFRIYKNVLQ | 1.52

Variant | protein stability index
VVAYLALAALSATISFRIYKKVLQ | 1.45
VVAYLALAALSATISFRIYKAVLQ | 1.89
VVAYLALAALSATISFRIYKEVLQ | 2.38
VVAYLALAALSATISFRIYKIVLQ | 2.91
VVAYLALAALSATISFRIYKWVLQ | 2.52
VVAYLALAALSATISFRIYKQVLQ | 2.56
VVAYLALAALSATISFRIYKFVLQ | 2.18
VVAYLALAALSATISFRIYKPVLQ | 1.65
VVAYLALAALSATISFRPYKSVLQ | 3.69
VVAYLALAALSATISFRNYKSVLQ | 3.51
VVAYLALAALSATISFRTYKSVLQ | 1.35
VVAYLALAALSATISFRLYKSVLQ | 1.99
VVAYLALAALSATISFRRYKSVLQ | 2.8
VVAYLALAALSATISFRFYKSVLQ | 2.06
VVAYLALAALSATISFREYKSVLQ | 3.04
VVAYLALAALSATISFRSYKSVLQ | 2.78
VVAYLALAALSATISFRYYKSVLQ | 3.91
VVAYLALAALSATISFRGYKSVLQ | 2.69
VVAYLALAALSATISFRVYKSVLQ | 4.01
VVAYLALAALSATISFRWYKSVLQ | 4.75
VVAYLALAALSATISFRAYKSVLQ | 1.05
VVAYLALAALSATISFRKYKSVLQ | 4.46
